Patent US20180155451A1 (published 2018)

T1: FcγRIIa R (human, UniProt P12318 34-217)
T1 construct: extracellular domain; also called FcgRIIa R type; 2aR
T1 sequence (looked up): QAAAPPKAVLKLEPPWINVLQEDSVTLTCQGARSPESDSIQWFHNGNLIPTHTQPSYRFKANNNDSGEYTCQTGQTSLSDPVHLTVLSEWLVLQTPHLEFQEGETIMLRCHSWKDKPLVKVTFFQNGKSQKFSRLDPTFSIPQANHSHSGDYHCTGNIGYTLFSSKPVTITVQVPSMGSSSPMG

T2: FcγRIIb (human, UniProt P31994 43-217)
T2 construct: extracellular domain; also called FcgRIIb; 2b
T2 sequence (looked up): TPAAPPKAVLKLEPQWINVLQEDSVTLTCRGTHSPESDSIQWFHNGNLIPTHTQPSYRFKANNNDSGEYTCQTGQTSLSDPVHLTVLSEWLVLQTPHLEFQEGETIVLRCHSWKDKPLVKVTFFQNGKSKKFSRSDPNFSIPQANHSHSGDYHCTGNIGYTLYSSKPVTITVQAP

B1: GpH7-A5/GpH7-B3 variant E269_01G/GpL16-k0 (antibody, human IgG1, kappa)
heavy 1: not shown
heavy 2: not shown
light: DIVMTQSPLSLPVTPGEPASISCQASESLVHSNRNTYLHWYLQKPGQSPQLLIYKVSNRFSGVPDRFSGSGSGTDFTLKISRVEAEDVGVYYCSQNTHVPPTFGQGTKVEIERTVAAPSVFIFPPSDEQLKSGTASVVCLLNNFYPREAKVQWKVDNALQSGNSQESVTEQDSKDSTYSLSSTLTLSKADYEKHKVYACEVTHQGLSSPVTKSFNRGEC
notes: heterodimerized antibody, mutation in the GpH7-B3 chain only; also called He Ab
B2: GpH7-A5/GpH7-B3 variant E269_02A/GpL16-k0 (antibody, human IgG1, kappa)
heavy 1: not shown
heavy 2: not shown
light: B1 light
notes: as for B1
B3: GpH7-A5/GpH7-B3 variant D265_14T/GpL16-k0 (antibody, human IgG1, kappa)
heavy 1: not shown
heavy 2: not shown
light: B1 light
notes: as for B1
B4: GpH7-A5/GpH7-B3 variant E269_19Q/GpL16-k0 (antibody, human IgG1, kappa)
heavy 1: not shown
heavy 2: not shown
light: B1 light
notes: as for B1
B5: GpH7-A5/GpH7-B3 variant E269_16H/GpL16-k0 (antibody, human IgG1, kappa)
heavy 1: not shown
heavy 2: not shown
light: B1 light
notes: as for B1
B6: GpH7-A5/GpH7-B3 variant E269_18N/GpL16-k0 (antibody, human IgG1, kappa)
heavy 1: not shown
heavy 2: not shown
light: B1 light
notes: as for B1
B7: GpH7-A5/GpH7-B3 variant E269_07I/GpL16-k0 (antibody, human IgG1, kappa)
heavy 1: not shown
heavy 2: not shown
light: B1 light
notes: as for B1
B8: GpH7-A5/GpH7-B3 variant E269_03V/GpL16-k0 (antibody, human IgG1, kappa)
heavy 1: not shown
heavy 2: not shown
light: B1 light
notes: as for B1
B9: GpH7-A5/GpH7-B3 variant D265_10E/GpL16-k0 (antibody, human IgG1, kappa)
heavy 1: not shown
heavy 2: not shown
light: B1 light
notes: as for B1
B10: GpH7-A5/GpH7-B3 variant D265_19Q/GpL16-k0 (antibody, human IgG1, kappa)
heavy 1: not shown
heavy 2: not shown
light: B1 light
notes: as for B1
B11: GpH7-A5/GpH7-B3 variant E269_11K/GpL16-k0 (antibody, human IgG1, kappa)
heavy 1: not shown
heavy 2: not shown
light: B1 light
notes: as for B1
B12: GpH7-A5/GpH7-B3 variant D265_12R/GpL16-k0 (antibody, human IgG1, kappa)
heavy 1: not shown
heavy 2: not shown
light: B1 light
notes: as for B1
B13: GpH7-A5/GpH7-B3 variant E269_13S/GpL16-k0 (antibody, human IgG1, kappa)
heavy 1: not shown
heavy 2: not shown
light: B1 light
notes: as for B1
B14: GpH7-A5/GpH7-B3 variant E269_20W/GpL16-k0 (antibody, human IgG1, kappa)
heavy 1: not shown
heavy 2: not shown
light: B1 light
notes: as for B1
B15: GpH7-A5/GpH7-B3 variant E269_04F/GpL16-k0 (antibody, human IgG1, kappa)
heavy 1: not shown
heavy 2: not shown
light: B1 light
notes: as for B1
B16: GpH7-A5/GpH7-B3 variant E269_15Y/GpL16-k0 (antibody, human IgG1, kappa)
heavy 1: not shown
heavy 2: not shown
light: B1 light
notes: as for B1
B17: GpH7-A5/GpH7-B3 variant D265_16H/GpL16-k0 (antibody, human IgG1, kappa)
heavy 1: not shown
heavy 2: not shown
light: B1 light
notes: as for B1
B18: GpH7-A5/GpH7-B3 variant D265_18N/GpL16-k0 (antibody, human IgG1, kappa)
heavy 1: not shown
heavy 2: not shown
light: B1 light
notes: as for B1
B19: GpH7-A5/GpH7-B3 variant D265_13S/GpL16-k0 (antibody, human IgG1, kappa)
heavy 1: not shown
heavy 2: not shown
light: B1 light
notes: as for B1

biological target: T1, FcγRIIa R; experiment: SPR; He/Con_2aR divided by He/Con_2b (FcγRIIb as reference)
Protocol: (§1) The heterodimerized antibodies He Abs in which one of the H chains was introduced with an alteration were assayed for their binding activities to each activating FcγR and inhibitory FcγR according to the method described in Example 4. […] The activating FcγRs in FIGS. 26, 27, 28, and 29 are FcγRIa, FcγRIIa (R), FcγRIIa (H), and FcγRIIIa, respectively.
(§2) Analysis of interaction between objective antibody and the FcγR was carried out using Biacore T100 (GE Healthcare). HBS-EP+ (GE Healthcare) was used as the running buffer, and the measurement temperature was set to 25° C. Chips produced by immobilizing the antigen peptide by the amine coupling method to a Series S Sencor Chip CM5 (GE Healthcare), or alternatively, chips produced by allowing preliminarily biotinylated antigen peptides to interact with and immobilize onto a Series S Sensor Chip SA (certified) (GE Healthcare) were used. Antibodies of interest were captured onto an antigen peptide-immobilized chip, and allowed to interact to each FcγR diluted with running buffer. To regenerate and repeatedly use the chip, the antibodies captured on the chip were washed off by reacting 10 mM glycine-HCl, pH 1.5.

Row | IIaR/IIb (He_2aR/2b) [ratio] | Binder
1 | 1.27 | B1
2 | 1.31 | B2
3 | 1.61 | B3
4 | 1.31 | B4
5 | 1.32 | B5
6 | 1.32 | B6
7 | 1.34 | B7
8 | 1.3 | B8
9 | 1.52 | B9
10 | 1.64 | B10
11 | 2.14 | B11
12 | 2.15 | B12
13 | 1.28 | B13
14 | 1.3 | B14
15 | 1.29 | B15
16 | 1.29 | B16
17 | 1.51 | B17
18 | 2.02 | B18
19 | 1.81 | B19

biological target: T2, FcγRIIb; experiment: SPR (Biacore), antibody captured, FcγR as analyte; relative binding
Protocol: as §1, §2

Row | He/Con_2b (IIb binding) | Binder
20 | 51.5 % of GpH7-A5/GpH7-B3/GpL16-k0 (=100) | B1
21 | 49.9 % of GpH7-A5/GpH7-B3/GpL16-k0 (=100) | B2
22 | 16 % of GpH7-A5/GpH7-B3/GpL16-k0 (=100) | B3
23 | 44.3 % of GpH7-A5/GpH7-B3/GpL16-k0 (=100) | B4
24 | 38.5 % of GpH7-A5/GpH7-B3/GpL16-k0 (=100) | B5
25 | 44.8 % of GpH7-A5/GpH7-B3/GpL16-k0 (=100) | B6
26 | 43.9 % of GpH7-A5/GpH7-B3/GpL16-k0 (=100) | B7
27 | 45.1 % of GpH7-A5/GpH7-B3/GpL16-k0 (=100) | B8
28 | 38.2 % of GpH7-A5/GpH7-B3/GpL16-k0 (=100) | B9
29 | 33.4 % of GpH7-A5/GpH7-B3/GpL16-k0 (=100) | B10
30 | 17.8 % of GpH7-A5/GpH7-B3/GpL16-k0 (=100) | B11
31 | 15 % of GpH7-A5/GpH7-B3/GpL16-k0 (=100) | B12
32 | 47.8 % of GpH7-A5/GpH7-B3/GpL16-k0 (=100) | B13
33 | 42.5 % of GpH7-A5/GpH7-B3/GpL16-k0 (=100) | B14
34 | 45 % of GpH7-A5/GpH7-B3/GpL16-k0 (=100) | B15
35 | 44.7 % of GpH7-A5/GpH7-B3/GpL16-k0 (=100) | B16
36 | 38.3 % of GpH7-A5/GpH7-B3/GpL16-k0 (=100) | B17
37 | 6.1 % of GpH7-A5/GpH7-B3/GpL16-k0 (=100) | B18
38 | 11.3 % of GpH7-A5/GpH7-B3/GpL16-k0 (=100) | B19

biological target: T1, FcγRIIa R; experiment: as above
Protocol: as §1, §2

Row | He/Con_2aR (IIaR binding) | Binder
39 | 65.3 % of GpH7-A5/GpH7-B3/GpL16-k0 (=100) | B1
40 | 65.3 % of GpH7-A5/GpH7-B3/GpL16-k0 (=100) | B2
41 | 25.8 % of GpH7-A5/GpH7-B3/GpL16-k0 (=100) | B3
42 | 57.8 % of GpH7-A5/GpH7-B3/GpL16-k0 (=100) | B4
43 | 50.7 % of GpH7-A5/GpH7-B3/GpL16-k0 (=100) | B5
44 | 59.2 % of GpH7-A5/GpH7-B3/GpL16-k0 (=100) | B6
45 | 58.8 % of GpH7-A5/GpH7-B3/GpL16-k0 (=100) | B7
46 | 58.8 % of GpH7-A5/GpH7-B3/GpL16-k0 (=100) | B8
47 | 58.2 % of GpH7-A5/GpH7-B3/GpL16-k0 (=100) | B9
48 | 54.8 % of GpH7-A5/GpH7-B3/GpL16-k0 (=100) | B10
49 | 38.1 % of GpH7-A5/GpH7-B3/GpL16-k0 (=100) | B11
50 | 32.2 % of GpH7-A5/GpH7-B3/GpL16-k0 (=100) | B12
51 | 61.2 % of GpH7-A5/GpH7-B3/GpL16-k0 (=100) | B13
52 | 55.5 % of GpH7-A5/GpH7-B3/GpL16-k0 (=100) | B14
53 | 58.2 % of GpH7-A5/GpH7-B3/GpL16-k0 (=100) | B15
54 | 57.6 % of GpH7-A5/GpH7-B3/GpL16-k0 (=100) | B16
55 | 58 % of GpH7-A5/GpH7-B3/GpL16-k0 (=100) | B17
56 | 12.4 % of GpH7-A5/GpH7-B3/GpL16-k0 (=100) | B18
57 | 20.5 % of GpH7-A5/GpH7-B3/GpL16-k0 (=100) | B19
